IntAct's records for PubMed 18728196

Target: pstp_myctu pstP (UniProt P9WHW5)

ECF RNA polymerase sigma factor SigH (Mycobacterium tuberculosis (strain ATCC 25618 / H37Rv)), P9WGH9 T26A;T106A
effect of a mutation on the interaction: disrupting interaction
